Results taken from publication PMC4937785 (Plant and Cell Physiology, 2016).
Values joined by “and” are separate entries in the source; they are usually repeats but may differ in a detail not shown here. Identical values can stand only once.

Assays:
native gel or EMSA = molecular target: the molecule itself; experiment: native gel or EMSA
SEC = molecular target: the molecule itself; experiment: SEC

B1: Flavodiiron protein Flv3 (sll0550) in Synechocystis sp. PCC 6803 (natural protein, UniProt Q55393 1-573, looked up)
chain: MFTTPLPPQKRLSTQTEAIAKNITAIRSLDWDRDRFDIEFGLQNGTTYNSYLIQADKVALVDSSHEKFRQLYLDLLQGLIDPQRIDYLIVSHTEPDHSGLVKDILQLNPRITVVATKVALQFLDNFVHQPFERIQVKSGDRLDLGQGHDLEFVSAPNLHWPDTMLTYDPATEILFTCDVFGMHYCSDAVFDIDLGKIAPDYQFYYDCLMGPNARSVLAAMKRMDNLGTISTVANGHGPLLRHNVGELLHRYRHWSESQSKAEKTVVVFYVADYGYGDRLSQAIAKGITKTGVGVDMVDLSSADPQEIQELVGHASGVVLGMPPLQANADLSTNFGAVLAAMQPKQVFGLYESYGGDDEPIDPLRTKFLDLGLREAFKVIKVKDTPSESTYQLCDESGTDLGQNLIQAAKIKQLKSLDSDLEKAIGRISGGLYIITAQKGEVKGAMLASWVSQASFNPPGFTVAVAKDRAIESLMQVGDRFVLNILEEGNYQILMKHFLKRFPPGADRFAGVKTQTASNGSPILTDALAYLECEVASRMECSDHWIVYSQVTNGRVAKAEGLTAVHHRKVGNYY
- stoichiometry N (native gel or EMSA): 2

B2: His-tagged Flv3 expressed in Escherichia coli (natural protein, Synechocystis sp. PCC 6803, UniProt Q55393 1-573, looked up)
chain: B1 chain
- stoichiometry N (SEC): 2 and 4
